Assay results: US20210070843A1
Where a chain is given by its changes, count along the chain named.

B1: S10 (antibody, V domains shown)
VH: EVQLVESGGGLVQPGGSLRLSCAASGFTIGGYGIHWVRQAPGKGLEWVASIGPSWGFTFYADSVKGRFTISADTSKNTAYLQMNSLRAEDTAVYYCARFNWVINGVTDYWGQGTLVTVSS
VL: DIQMTQSPSSLSASVGDRVTITCRASQDVSYYVAWYQQKPGKAPKLLIFWSTFLYSGVPSRFSGSGSGTDFTLTISSLQPEDFATYYCQQYYDSPMTFGQGTKVEIKR
B2: S06 (antibody, V domains shown)
VH: EVQLVESGGGLVQPGGSLRLSCAASGFTIGGGWIHWVRQAPGKGLEWVAFIGPYGGSTFYADSVKGRFTISADTSKNTAYLQMNSLRAEDTAVYYCARFNFGFWNHMDYWGQGTLVTVSS
VL: B1 VL with Y31S, Y32W, F49Y, W50G, S51T, Y55H, D93N, S94G, M96L
B3: C05 (antibody, V domains shown)
VH: PVQLQESGGGLVQPGESLRLSCVGSGSSFGESTLSYYAVSWVRQAPGKGLEWLSIINAGGGDIDYADSVEGRFTISRDNSKETLYLQMTNLRVEDTGVYYCAKHMSMQQVVSAGWERADLVGDAFDVWGQGTMVTVSS
VL: DIQLTQSPSSLSASVGDRVTLTCQASQDIRKFLNWYQQKPGKGPKLLIYDASNLQRGVPSRFSGGGSGTDFTLIISSLQPEDVGTYYCQQYDGLPFTFGGGTKVEIKR
B4: P47 (antibody, V domains shown)
VH: EVQLVESGGGLVQPGGSLRLSCAASGFTIGNSGIHWVRQAPGKGLEWVASIWPSGGSTYYADSVKGRFTISADTSKNTAYLQMNSLRAEDTAVYYCARFGHIDGDIMDYWGQGTLVTVSS
VL: B1 VL with S30Y, F49S, W50G, T52S, F53Y, D93N, S94W, M96L
B5: P48 (antibody, V domains shown)
VH: EVQLVESGGGLVQPGGSLRLSCAASGFTINSWGIHWVRQAPGKGLEWVAGIGPSWGYTSYADSVKGRFTISADTSKNTAYLQMNSLRAEDTAVYYCARFGDGDFDLMDYWGQGTLVTVSS
VL: DIQMTQSPSSLSASVGDRVTITCRASQDVWSYVAWYQQKPGKAPKLLISYTSYLYSGVPSRFSGSGSGTDFTLTISSLQPEDFATYYCQQYFNWPITFGQGTKVEIKR
B6: S40 (antibody, V domains shown)
VH: B4 VH with N31D, S32F, S50G, S54F, S57Y, G100V, H101N, I102W, I106Y
VL: B5 VL with W30G, S31F, Y50W, T51S, F92Y, W94Y, I96L
B7: P38 (antibody, V domains shown)
VH: EVQLVESGGGLVQPGGSLRLSCAASGFTINDGGIHWVRQAPGKGLEWVAFIGPYGGSTFYADSVKGRFTISADTSKNTAYLQMNSLRAEDTAVYYCAGFIGDYSSYHGVMDYWGQGTLVTVSS
VL: B5 VL with S31G, Y50W, T51P, S52G, Y53G, F92S, N93S, W94F, I96L
B8: S07 (antibody, V domains shown)
VH: B5 VH with W32S, G50S, Y57S, S59Y, D101I, F104I, L106V
VL: B5 VL with S31G, T51A, Y53F, I96V
B9: P10 (antibody, V domains shown)
VH: B4 VH with G30D, G33W, S54F, S57Y, H101N, I102V, D103F, G104D, D105W, I106Y
VL: B5 VL with W30N, Y32N, S49Y, Y50W, T51A, S52G, Y91S, F92S, N93D, W94F
B10: P28 (antibody, V domains shown)
VH: EVQLVESGGGLVQPGGSLRLSCAASGFTINNSGIHWVRQAPGKGLEWVASIWPSGGYTYYADSVKGRFTISADTSKNTAYLQMNSLRAEDTAVYYCARFNSSYSSGLMDYWGQGTLVTVSS
VL: B5 VL with S31Y, Y32S, S49Y, Y50F, T51A, S52T, Y53G, I96V
B11: P14 (antibody, V domains shown)
VH: B4 VH with N31D, S32F, S50G, S54F, S57Y, G100V, H101N, I102W, I106Y
VL: B5 VL with W30G, S31F, Y50W, T51S, F92Y, W94Y, I96L
B12: P25 (antibody, V domains shown)
VH: EVQLVESGGGLVQPGGSLRLSCAASGFTISNGGIHWVRQAPGKGLEWVAGIGPYGGYTYYADSVKGRFTISADTSKNTAYLQTNSLRAEDTAVYYCARFYGYSGIMDYWGQGTLVTVSS
VL: B5 VL with S31G, Y50G, T51S, S52R, Y53S, F92Y, W94Y
B13: S51 (antibody, V domains shown)
VH: EVQLVESGGGLVQPGGSLRLSCAASGFTIDDWGIHWVRQAPGKGLEWVAWIWPYGGFTSYADSVKGRFTISADTSKNTAYLQMNSLRAEDTAVYYCARFGFVDWNLMDYWGQGTLVTVSS
VL: B5 VL with S31G, S52T, F92Y, W94S, I96V
B14: S01 (antibody, V domains shown)
VH: B4 VH with G30N, S32Y, S57Y, Y59S, H101L, I102G, G104Y
VL: B5 VL with S31G, Y50F, T51P, Y53S, F92Y, N93D, W94G, I96V

Target: recombinant H5N1 VN/04 HA trimer (hemagglutinin ectodomain of A/Vietnam/1203/2004) (influenza A virus A/Vietnam/1203/2004 (H5N1))
Assay: ELISA, coated HA

Binder	EC50
B1	0.259 µg/mL
B2	0.311 µg/mL

Target: full-length H1 A/California/07/2009 HA expressed on 293T cells (influenza A virus A/California/07/2009 (H1N1))
Assay: cell-based or functional assay

Binder	IC50 of pseudo virus neutralization H1N1 CA/09	IC50 of true virus neutralization H1N1 CA/09
B3	> 100 µg/mL	> 500 µg/mL
B4	> 100 µg/mL	> 500 µg/mL
B5	> 100 µg/mL	> 500 µg/mL
B6	> 100 µg/mL	436 µg/mL
B7	> 100 µg/mL	> 500 µg/mL
B1	0.349 µg/mL	1560 µg/mL
B8	> 100 µg/mL	> 500 µg/mL
B9	0.465 µg/mL	> 500 µg/mL
B10	> 100 µg/mL	> 500 µg/mL
B11	> 100 µg/mL	4390 µg/mL
B2	> 100 µg/mL	> 500 µg/mL
B12	> 100 µg/mL	> 500 µg/mL
B13	> 100 µg/mL	> 500 µg/mL
B14	> 100 µg/mL	> 500 µg/mL

Target: H7 A/Anhui/1-BALF_RG17/2013 HA on H7N9 AH/13 pseudo virus (influenza A virus A/Anhui/1-BALF_RG17/2013 (H7N9))
Assay: cell-based or functional assay

Binder	IC50 of pseudo virus neutralization H7N9 AH/13
B3	> 200 µg/mL
B4	> 200 µg/mL
B5	> 200 µg/mL
B6	> 200 µg/mL
B7	> 200 µg/mL
B1	> 200 µg/mL
B8	> 200 µg/mL
B9	> 200 µg/mL
B10	> 200 µg/mL
B11	> 200 µg/mL
B2	> 200 µg/mL
B12	> 200 µg/mL
B13	> 200 µg/mL
B14	> 200 µg/mL

Target: full-length H5 A/Vietnam/1203/2004 HA expressed on 293T cells (influenza A virus A/Vietnam/1203/2004 (H5N1))
Assay: cell-based or functional assay

Binder	IC50 of pseudo virus neutralization H5N1 VN/04
B3	> 200 µg/mL
B4	> 200 µg/mL
B5	> 200 µg/mL
B6	> 200 µg/mL
B7	> 200 µg/mL
B1	0.267 µg/mL
B8	> 200 µg/mL
B9	> 200 µg/mL
B10	> 200 µg/mL
B11	> 200 µg/mL
B2	> 200 µg/mL
B12	> 200 µg/mL
B13	> 200 µg/mL
B14	> 200 µg/mL

Target: cell surface-expressed H3N2 WN/05 HA trimer (influenza A virus A/Wisconsin/67/2005 (H3N2))
Assay: cell-based or functional assay

Binder	IC50 of pseudo virus neutralization H3N2 WN/05
B3	0.0102 µg/mL
B4	> 20 µg/mL
B5	> 20 µg/mL
B6	> 20 µg/mL
B7	> 20 µg/mL
B1	> 20 µg/mL
B8	> 20 µg/mL
B9	> 20 µg/mL
B10	> 20 µg/mL
B11	> 20 µg/mL
B2	> 20 µg/mL
B12	> 20 µg/mL
B13	> 20 µg/mL
B14	> 20 µg/mL

Target: full-length H1 A/California/07/2009 HA expressed on 293T cells (influenza A virus A/California/07/2009 (H1N1))
Assay: flow cytometry, HA-expressing 293T

Binder	max. MFI	EC50
B3	86 MFI	–
B4	10200 MFI	0.61 µg/mL
B5	7860 MFI	2.4 µg/mL
B6	8630 MFI	0.46 µg/mL
B7	988 MFI	3.16 µg/mL
B1	10700 MFI	3.38 µg/mL
B8	10800 MFI	1.61 µg/mL
B9	9660 MFI	0.41 µg/mL
B10	168 MFI	–
B11	8340 MFI	0.125 µg/mL
B2	1650 MFI	3.98 µg/mL
B12	2380 MFI	0.761 µg/mL
B13	6290 MFI	0.754 µg/mL
B14	8430 MFI	0.384 µg/mL

Target: full-length H5 A/Vietnam/1203/2004 HA expressed on 293T cells (influenza A virus A/Vietnam/1203/2004 (H5N1))
Assay: flow cytometry, HA-expressing 293T

Binder	max. MFI	EC50
B3	547 MFI	–
B4	396 MFI	–
B5	474 MFI	–
B6	724 MFI	2.85 µg/mL
B7	240 MFI	–
B1	1100 MFI	0.79 µg/mL
B8	863 MFI	4.98 µg/mL
B9	517 MFI	–
B10	193 MFI	–
B11	328 MFI	–
B2	249 MFI	–
B12	318 MFI	–
B13	452 MFI	–
B14	306 MFI	–

Target: cell surface-expressed H3N2 WN/05 HA trimer (influenza A virus A/Wisconsin/67/2005 (H3N2))
Assay: flow cytometry, HA-expressing 293T

Binder	EC50	max. MFI
B3	0.13 µg/mL	14600 MFI
B4	–	175 MFI
B5	–	258 MFI
B6	–	109 MFI
B7	–	137 MFI
B1	7.86 µg/mL	511 MFI
B8	3.71 µg/mL	410 MFI
B9	–	117 MFI
B10	–	127 MFI
B11	–	154 MFI
B2	–	135 MFI
B12	–	152 MFI
B13	–	340 MFI
B14	–	178 MFI
